Data on 17 molecules can be found in US6794168B1, “Process for oxidising aromatic compounds” (Isis Innovation Limited, priority 1999, dated 2004).

For one experiment, the system named is P450cam. Put plainly: Oxidation of further halo aromatic substrates by P450cam enzymes. It counts as biochemical, Pseudomonas putida. Conditions: substrate of P450cam enzymes. As to the method:
(§1) 50 mM Tris-HCl buffer pH 7.4 is added to make up the volume.
(§2) Temperature controlled at 30° C., optional.
(§3) The NADH turnover rate could be determined by monitoring the absorbance at 340 nm with time.
(§4) All mutants have C334A. Coupling efficiency is the percentage of NADH consumed which was utilised for product formation, i.e. a percentage of the theoretical maximum efficiency. The product formation rates are given in (nmol product) (nmol P450cam)^−1(min)^−1. The relative amount of product formed in each case is shown. 1,3- and 1,4-dichlorobenzene, 1,2,3- and 1,3,5-trichlorobenzene, 1,2,4,5- and 1,2,3,5-tetrachlorobenzene, and […] and 2,2′,4,5,5′-pentachlorobiphenyl were also found to be oxidised.

Experiment [1] is described as follows: Oxidation of halo aromatic compounds by P450cam mutants in vitro, trichlorophenol products. It counts as biochemical. The following applies: for Product formation rate: (nmol product)(nmol P450cam)^−1(min)^−1; for Product formation rate / Coupling Efficiency (%): trichlorophenol products; for Coupling Efficiency (%): percentage of NADH consumed utilised for product formation; for 2,3,6-Trichlorophenol (relative amount of product formed) / 3,4,6-Trichlorophenol (relative amount of product formed): substrate not named, all mutants have C334A. How it is done: as §1, §2, §3, §4

Experiment [2] is described as follows: Oxidation of halo aromatic compounds by P450cam mutants in vitro, dichlorophenol products. It is filed as biochemical. The following applies: for Product formation rate: (nmol product)(nmol P450cam)^−1(min)^−1; for Product formation rate / Coupling Efficiency (%): dichlorophenol products; for Coupling Efficiency (%): percentage of NADH consumed utilised for product formation; for 2,3-Dichlorophenol (relative amount of product formed) / 3,4-Dichlorophenol (relative amount of product formed): substrate not named, all mutants have C334A. How it is done: as §1, §2, §3, §4

On to `Clc1cccc(Cl)c1Cl` [1,2,3-trichlorobenzene], for which the “found to be oxidised” value in the experiment on P450cam was “oxidised”.
As to `Clc1cc(Cl)cc(Cl)c1` [1,3,5-trichlorobenzene], the “found to be oxidised” value in the experiment on P450cam is listed as “oxidised”.
As to `Clc1cc(Cl)c(Cl)c(Cl)c1` [1,2,3,5-tetrachlorobenzene], the “found to be oxidised” value in the experiment with P450cam is reported as “oxidised”.
For `Clc1cccc(Cl)c1` [1,3-dichlorobenzene], the “found to be oxidised” value in the experiment with P450cam is listed as “oxidised”.
Same read-out and setting: under `Clc1ccc(Cl)c(-c2cc(Cl)c(Cl)cc2Cl)c1` [2,2′,4,5,5′-pentachlorobiphenyl] stands “oxidised”; under `Clc1ccc(Cl)cc1` [1,4-dichlorobenzene], “oxidised”.
Take `Clc1cc(Cl)c(Cl)cc1Cl` [1,2,4,5-tetrachlorobenzene]: the “found to be oxidised” value with P450cam was “oxidised”.
On the same count and under the same terms, the same measure for `Clc1c(Cl)c(Cl)c(-c2ccccc2)c(Cl)c1Cl` [2,3,4,5,6-pentachlorobiphenyl]: “oxidised”.

B1: F87A-Y96F: P450cam mutant (with C334A) (protein, UniProt P00183 2-415, looked up, variant F87A Y96F C334A)
Camphor 5-monooxygenase: TTETIQSNANLAPLPPHVPEHLVFDFDMYNPSNLSAGVQEAWAVLQESNVPDLVWTRCNGGHWIATRGQLIREAYEDYRHFSSECPAIPREAGEAFDFIPTSMDPPEQRQFRALANQVVGMPVVDKLENRIQELACSLIESLRPQGQCNFTEDYAEPFPIRIFMLLAGLPEEDIPHLKYLTDQMTRPDGSMTFAEAKEALYDYLIPIIEQRRQKPGTDAISIVANGQVNGRPITSDEAKRMCGLLLVGGLDTVVNFLSFSMEFLAKSPEHRQELIERPERIPAACEELLRRFSLVADGRILTSDYEFHGVQLKKGDQILLPQMLSGLDERENAAPMHVDFSRQKVSHTTFGHGSHLCLGQHLARREIIVTLKEWLTRIPDFSIAPGAQIQHKSGIVSGVQALPLVWDPATTKAV
Take B1: in experiment [1], the “Product formation rate” value was found to be 3 min⁻¹.

B2: C334A: P450cam with only the base mutation C334A (protein, UniProt P00183 2-415, looked up, variant C334A)
Camphor 5-monooxygenase: TTETIQSNANLAPLPPHVPEHLVFDFDMYNPSNLSAGVQEAWAVLQESNVPDLVWTRCNGGHWIATRGQLIREAYEDYRHFSSECPFIPREAGEAYDFIPTSMDPPEQRQFRALANQVVGMPVVDKLENRIQELACSLIESLRPQGQCNFTEDYAEPFPIRIFMLLAGLPEEDIPHLKYLTDQMTRPDGSMTFAEAKEALYDYLIPIIEQRRQKPGTDAISIVANGQVNGRPITSDEAKRMCGLLLVGGLDTVVNFLSFSMEFLAKSPEHRQELIERPERIPAACEELLRRFSLVADGRILTSDYEFHGVQLKKGDQILLPQMLSGLDERENAAPMHVDFSRQKVSHTTFGHGSHLCLGQHLARREIIVTLKEWLTRIPDFSIAPGAQIQHKSGIVSGVQALPLVWDPATTKAV
As for B2, in experiment [2], the “Product formation rate” value was 0.5 min⁻¹, the “Coupling Efficiency (%)” value was 2%, the “2,3-Dichlorophenol (relative amount of product formed)” value was 95 and the “3,4-Dichlorophenol (relative amount of product formed)” value stood at 5.

B3: Y96H: P450cam mutant (with C334A) (protein, UniProt P00183 2-415, looked up, variant Y96H C334A)
Camphor 5-monooxygenase: TTETIQSNANLAPLPPHVPEHLVFDFDMYNPSNLSAGVQEAWAVLQESNVPDLVWTRCNGGHWIATRGQLIREAYEDYRHFSSECPFIPREAGEAHDFIPTSMDPPEQRQFRALANQVVGMPVVDKLENRIQELACSLIESLRPQGQCNFTEDYAEPFPIRIFMLLAGLPEEDIPHLKYLTDQMTRPDGSMTFAEAKEALYDYLIPIIEQRRQKPGTDAISIVANGQVNGRPITSDEAKRMCGLLLVGGLDTVVNFLSFSMEFLAKSPEHRQELIERPERIPAACEELLRRFSLVADGRILTSDYEFHGVQLKKGDQILLPQMLSGLDERENAAPMHVDFSRQKVSHTTFGHGSHLCLGQHLARREIIVTLKEWLTRIPDFSIAPGAQIQHKSGIVSGVQALPLVWDPATTKAV
Turning to B3, in experiment [1], the “Product formation rate” value was determined as 1 min⁻¹, the “Coupling Efficiency (%)” value is 3%, the “2,3,6-Trichlorophenol (relative amount of product formed)” value is given as 54 and the “3,4,6-Trichlorophenol (relative amount of product formed)” value was 46.

B4: Y96F: P450cam mutant (with C334A) (protein, UniProt P00183 2-415, looked up, variant Y96F C334A)
Camphor 5-monooxygenase: TTETIQSNANLAPLPPHVPEHLVFDFDMYNPSNLSAGVQEAWAVLQESNVPDLVWTRCNGGHWIATRGQLIREAYEDYRHFSSECPFIPREAGEAFDFIPTSMDPPEQRQFRALANQVVGMPVVDKLENRIQELACSLIESLRPQGQCNFTEDYAEPFPIRIFMLLAGLPEEDIPHLKYLTDQMTRPDGSMTFAEAKEALYDYLIPIIEQRRQKPGTDAISIVANGQVNGRPITSDEAKRMCGLLLVGGLDTVVNFLSFSMEFLAKSPEHRQELIERPERIPAACEELLRRFSLVADGRILTSDYEFHGVQLKKGDQILLPQMLSGLDERENAAPMHVDFSRQKVSHTTFGHGSHLCLGQHLARREIIVTLKEWLTRIPDFSIAPGAQIQHKSGIVSGVQALPLVWDPATTKAV
On to B4, for which the “Product formation rate” value in experiment [1] turned out to be 22 min⁻¹; in experiment [2], 8 min⁻¹.

B5: Y96L-V247A: P450cam mutant (with C334A) (protein, UniProt P00183 2-415, looked up, variant Y96L V247A C334A)
Camphor 5-monooxygenase: TTETIQSNANLAPLPPHVPEHLVFDFDMYNPSNLSAGVQEAWAVLQESNVPDLVWTRCNGGHWIATRGQLIREAYEDYRHFSSECPFIPREAGEALDFIPTSMDPPEQRQFRALANQVVGMPVVDKLENRIQELACSLIESLRPQGQCNFTEDYAEPFPIRIFMLLAGLPEEDIPHLKYLTDQMTRPDGSMTFAEAKEALYDYLIPIIEQRRQKPGTDAISIVANGQVNGRPITSDEAKRMCGLLLAGGLDTVVNFLSFSMEFLAKSPEHRQELIERPERIPAACEELLRRFSLVADGRILTSDYEFHGVQLKKGDQILLPQMLSGLDERENAAPMHVDFSRQKVSHTTFGHGSHLCLGQHLARREIIVTLKEWLTRIPDFSIAPGAQIQHKSGIVSGVQALPLVWDPATTKAV
Consider B5, for which, in experiment [2], the “Product formation rate” value came out at 0.7 min⁻¹, the “Coupling Efficiency (%)” value is 2%, the “2,3-Dichlorophenol (relative amount of product formed)” value is 90 and the “3,4-Dichlorophenol (relative amount of product formed)” value stood at 10.

B6: Y96A: P450cam mutant (with C334A) (protein, UniProt P00183 2-415, looked up, variant Y96A C334A)
Camphor 5-monooxygenase: TTETIQSNANLAPLPPHVPEHLVFDFDMYNPSNLSAGVQEAWAVLQESNVPDLVWTRCNGGHWIATRGQLIREAYEDYRHFSSECPFIPREAGEAADFIPTSMDPPEQRQFRALANQVVGMPVVDKLENRIQELACSLIESLRPQGQCNFTEDYAEPFPIRIFMLLAGLPEEDIPHLKYLTDQMTRPDGSMTFAEAKEALYDYLIPIIEQRRQKPGTDAISIVANGQVNGRPITSDEAKRMCGLLLVGGLDTVVNFLSFSMEFLAKSPEHRQELIERPERIPAACEELLRRFSLVADGRILTSDYEFHGVQLKKGDQILLPQMLSGLDERENAAPMHVDFSRQKVSHTTFGHGSHLCLGQHLARREIIVTLKEWLTRIPDFSIAPGAQIQHKSGIVSGVQALPLVWDPATTKAV
On to B6, for which, in experiment [1], the “Product formation rate” value was 33 min⁻¹, the “Coupling Efficiency (%)” value is given as 14%, the “2,3,6-Trichlorophenol (relative amount of product formed)” value is 77 and the “3,4,6-Trichlorophenol (relative amount of product formed)” value was found to be 23. Further, in experiment [2], the “Product formation rate” value was 19 min⁻¹, the “Coupling Efficiency (%)” value is on record as 6%, the “2,3-Dichlorophenol (relative amount of product formed)” value came out at 94 and the “3,4-Dichlorophenol (relative amount of product formed)” value stood at 6.

B7: F87A-Y96F-V247A: P450cam mutant (with C334A) (protein, UniProt P00183 2-415, looked up, variant F87A Y96F V247A C334A)
Camphor 5-monooxygenase: TTETIQSNANLAPLPPHVPEHLVFDFDMYNPSNLSAGVQEAWAVLQESNVPDLVWTRCNGGHWIATRGQLIREAYEDYRHFSSECPAIPREAGEAFDFIPTSMDPPEQRQFRALANQVVGMPVVDKLENRIQELACSLIESLRPQGQCNFTEDYAEPFPIRIFMLLAGLPEEDIPHLKYLTDQMTRPDGSMTFAEAKEALYDYLIPIIEQRRQKPGTDAISIVANGQVNGRPITSDEAKRMCGLLLAGGLDTVVNFLSFSMEFLAKSPEHRQELIERPERIPAACEELLRRFSLVADGRILTSDYEFHGVQLKKGDQILLPQMLSGLDERENAAPMHVDFSRQKVSHTTFGHGSHLCLGQHLARREIIVTLKEWLTRIPDFSIAPGAQIQHKSGIVSGVQALPLVWDPATTKAV
With B7, the “Product formation rate” value in experiment [1] was 7 min⁻¹.

B8: F87L-Y96F: P450cam mutant (with C334A) (protein, UniProt P00183 2-415, looked up, variant F87L Y96F C334A)
Camphor 5-monooxygenase: TTETIQSNANLAPLPPHVPEHLVFDFDMYNPSNLSAGVQEAWAVLQESNVPDLVWTRCNGGHWIATRGQLIREAYEDYRHFSSECPLIPREAGEAFDFIPTSMDPPEQRQFRALANQVVGMPVVDKLENRIQELACSLIESLRPQGQCNFTEDYAEPFPIRIFMLLAGLPEEDIPHLKYLTDQMTRPDGSMTFAEAKEALYDYLIPIIEQRRQKPGTDAISIVANGQVNGRPITSDEAKRMCGLLLVGGLDTVVNFLSFSMEFLAKSPEHRQELIERPERIPAACEELLRRFSLVADGRILTSDYEFHGVQLKKGDQILLPQMLSGLDERENAAPMHVDFSRQKVSHTTFGHGSHLCLGQHLARREIIVTLKEWLTRIPDFSIAPGAQIQHKSGIVSGVQALPLVWDPATTKAV
With B8, the “Product formation rate” value is 8 min⁻¹ in experiment [1] and 5 min⁻¹ in experiment [2].

B9: Y96A-V247L: P450cam mutant (with C334A) (protein, UniProt P00183 2-415, looked up, variant Y96A V247L C334A)
Camphor 5-monooxygenase: TTETIQSNANLAPLPPHVPEHLVFDFDMYNPSNLSAGVQEAWAVLQESNVPDLVWTRCNGGHWIATRGQLIREAYEDYRHFSSECPFIPREAGEAADFIPTSMDPPEQRQFRALANQVVGMPVVDKLENRIQELACSLIESLRPQGQCNFTEDYAEPFPIRIFMLLAGLPEEDIPHLKYLTDQMTRPDGSMTFAEAKEALYDYLIPIIEQRRQKPGTDAISIVANGQVNGRPITSDEAKRMCGLLLLGGLDTVVNFLSFSMEFLAKSPEHRQELIERPERIPAACEELLRRFSLVADGRILTSDYEFHGVQLKKGDQILLPQMLSGLDERENAAPMHVDFSRQKVSHTTFGHGSHLCLGQHLARREIIVTLKEWLTRIPDFSIAPGAQIQHKSGIVSGVQALPLVWDPATTKAV
On to B9, for which, in experiment [2], the “Product formation rate” value was 20 min⁻¹.
